Each binder was assayed against Anti-CD28 Fab (SEQ ID NOs: 202, 203) (assay: phage binding ELISA on captured Fab; competitor CD28 antigen;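 for Anti-CD28 Fab signal in the presence of CD28: wells pretreated with CD28 antigen in blocking buffer or buffer only, then clonal phage supernatants added briefly without washing, bound phage detected via horseradish-conjugated anti-M13 antibody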).
Chain of Anti-CD28 Fab (SEQ ID NOs: 202, 203) (VH, as listed by the source, chain 1 of 2): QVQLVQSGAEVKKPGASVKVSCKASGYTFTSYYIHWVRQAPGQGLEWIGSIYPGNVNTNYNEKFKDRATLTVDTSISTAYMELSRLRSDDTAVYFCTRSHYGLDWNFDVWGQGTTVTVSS
Chain of Anti-CD28 Fab (SEQ ID NOs: 202, 203) (VL, as listed by the source, chain 2 of 2): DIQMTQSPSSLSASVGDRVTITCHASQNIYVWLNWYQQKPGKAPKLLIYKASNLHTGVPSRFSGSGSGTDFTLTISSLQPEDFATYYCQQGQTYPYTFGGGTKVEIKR
Procedure: (§1) Clonal phage were harvested as crude supernatants and screened via standard ELISAs. […] Prior to the addition of clonal phage, wells were incubated with blocking buffer and CD28 antigen or blocking buffer alone. Without washing or aspirating, clonal phage supernatants were then added to the wells and incubated for a short time. Wells were then washed followed by detection of bound phage using a horse radish conjugated anti-M13 antibody.

| Binder | Anti-CD28 Fab signal in the presence of CD28 |
| --- | --- |
| YCDGHSWEYIGKCL [Phage-70] | 0.07 |
| YCAGHLPEYMPHCI [Phage-91] | 0.09 |
| YCEGHSSEYIQKCL [Phage-37] | 0.1 |
| YCDGHLPEYMEKCL [Phage-50] | 0.1 |
| YCEGHLPQYMKKCL [Phage-144] | 0.1 |
| YCMGHAPEYMAKCL [Phage-68] | 0.09 |
| YCEGHAAEYMTKCL [Phage-143] | 0.08 |
| YCDGHLPEYMNKCL [Phage-52] | 0.13 |
| YCEGHAPEYMLKCL [Phage-146] | 0.07 |
| YCDGHAPEYMMKCL [Phage-61] | 0.09 |
| YCDGHLPEYLAKCL [Phage-64] | 0.11 |
| YCDGHLPEYMSKCM [Phage-66] | 0.14 |
| YCDGHLDEYMAKCL [Phage-94] | 0.08 |
| YCEGHLPLYMWKCL [Phage-96] | 0.07 |
| YCEGHLPEYMFKCL [Phage-58] | 0.12 |
| YCAGHLPEYMDKCL [Phage-53] | 0.12 |
| YCEGHLPEYMAKCL [Phage-57] | 0.14 |
| YCEGHLPQYMQKCL [Phage-60] | 0.12 |
| YCDGHLPIYMSQCL [Phage-73] | 0.12 |
| YCDGHLPIYMAKCL [Phage-100] | 0.14 |

| Binder | Anti-CD28 Fab signal in the presence of CD28 |
| --- | --- |
| YCAGHLPQYMSKCL [Phage-72] | 0.11 |
| YCDGHLPQYMAQCL [Phage-59] | 0.2 |
| YCEGHSPQYMWKCL [Phage-142] | 0.12 |
| YCDGHSAEHMAKCL [Phage-54] | 0.08 |
| YCEGHLPQYMWKCL [Phage-51] | 0.17 |
| YCEGHAAEYMAKCL [Phage-63] | 0.08 |
| YCEGHSPEYMSKCL [Phage-89] | 0.07 |
| YCDGHLPEYQEKCL [Phage-71] | 0.1 |
| YCEGHLPEYMWKCL [Phage-62] | 0.08 |
| YCAGHLPQYMAKCL [Phage-55] | 0.17 |
| YCWSHSPPFIKKCY [Phage-39] | 0.06 |
| HCSGHHWLQVWKCF [Phage-38] | 0.07 |
| YCEGHLPEYLEKCV [Phage-41] | 0.06 |
| YCDGHEPQYMLKCL [Phage-88] | 0.12 |
| YCDGHSPQYIEKCL [Phage-92] | 0.07 |
| YCEGHSQEYLWKCL [Phage-36] | 0.07 |
| YCEGHTAEYMQKCL [Phage-67] | 0.08 |
| YCEGHSQENIWKCL [Phage-32] | 0.07 |
| YCAGHMPEYMAKCL [Phage-65] | 0.11 |
| YCEGHTMEYMWKCL [Phage-90] | 0.07 |

The binders below were run against Anti-CD28 Fab (SEQ ID NOs: 202, 203) (assay: phage binding ELISA on captured Fab;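 note: clonal phage supernatants added briefly to wells pre-incubated with CD28 antigen or with blocking buffer only, then washed, bound phage read by ELISA using HRP-coupled anti-M13 antibody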).
Procedure: as §1

| Binder | Anti-CD28 Fab signal |
| --- | --- |
| YCDGHSWEYIGKCL [Phage-70] | 2.37 |
| YCAGHLPEYMPHCI [Phage-91] | 2.31 |
| YCEGHSSEYIQKCL [Phage-37] | 2.25 |
| YCDGHLPEYMEKCL [Phage-50] | 2.44 |
| YCEGHLPQYMKKCL [Phage-144] | 2.22 |
| YCMGHAPEYMAKCL [Phage-68] | 2.38 |
| YCEGHAAEYMTKCL [Phage-143] | 2.22 |
| YCDGHLPEYMNKCL [Phage-52] | 2.43 |
| YCEGHAPEYMLKCL [Phage-146] | 2.21 |
| YCDGHAPEYMMKCL [Phage-61] | 2.39 |
| YCDGHLPEYLAKCL [Phage-64] | 2.38 |
| YCDGHLPEYMSKCM [Phage-66] | 2.38 |
| YCDGHLDEYMAKCL [Phage-94] | 2.31 |
| YCEGHLPLYMWKCL [Phage-96] | 2.3 |
| YCEGHLPEYMFKCL [Phage-58] | 2.4 |
| YCAGHLPEYMDKCL [Phage-53] | 2.42 |
| YCEGHLPEYMAKCL [Phage-57] | 2.41 |
| YCEGHLPQYMQKCL [Phage-60] | 2.39 |
| YCDGHLPIYMSQCL [Phage-73] | 2.36 |
| YCDGHLPIYMAKCL [Phage-100] | 2.3 |

| Binder | Anti-CD28 Fab signal |
| --- | --- |
| YCAGHLPQYMSKCL [Phage-72] | 2.37 |
| YCDGHLPQYMAQCL [Phage-59] | 2.4 |
| YCEGHSPQYMWKCL [Phage-142] | 2.22 |
| YCDGHSAEHMAKCL [Phage-54] | 2.41 |
| YCEGHLPQYMWKCL [Phage-51] | 2.44 |
| YCEGHAAEYMAKCL [Phage-63] | 2.38 |
| YCEGHSPEYMSKCL [Phage-89] | 2.31 |
| YCDGHLPEYQEKCL [Phage-71] | 2.37 |
| YCEGHLPEYMWKCL [Phage-62] | 2.39 |
| YCAGHLPQYMAKCL [Phage-55] | 2.41 |
| YCWSHSPPFIKKCY [Phage-39] | 2.06 |
| HCSGHHWLQVWKCF [Phage-38] | 2.31 |
| YCEGHLPEYLEKCV [Phage-41] | 2.11 |
| YCDGHEPQYMLKCL [Phage-88] | 2.32 |
| YCDGHSPQYIEKCL [Phage-92] | 2.31 |
| YCEGHSQEYLWKCL [Phage-36] | 2.36 |
| YCEGHTAEYMQKCL [Phage-67] | 2.38 |
| YCEGHSQENIWKCL [Phage-32] | 1.41 |
| YCAGHMPEYMAKCL [Phage-65] | 2.38 |
| YCEGHTMEYMWKCL [Phage-90] | 2.31 |

Reference: patent US20260274955A1 (JANUX THERAPEUTICS, published 2026)
